Experimental data: US20240043549A1 (ALS THERAPY DEVELOPMENT INSTITUTE, published 2024)

T1: low affinity immunoglobulin gamma fc region receptor IIIB (FCGR3B) (CD16b) (human, UniProt O75015 17-200)
T1 construct: Bought recombinant human protein (Santa Cruz Biotechnology); also called FCR3B
T1 chain: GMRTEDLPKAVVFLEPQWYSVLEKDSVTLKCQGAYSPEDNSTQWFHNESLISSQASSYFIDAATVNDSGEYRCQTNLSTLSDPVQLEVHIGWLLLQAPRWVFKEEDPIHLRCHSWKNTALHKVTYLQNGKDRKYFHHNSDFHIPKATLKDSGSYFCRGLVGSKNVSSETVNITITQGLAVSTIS

T2: low affinity immunoglobulin gamma fc region receptor IIA (FCGR2A) (CD32) (human, UniProt P12318 34-217)
T2 construct: Bought recombinant human protein (Santa Cruz Biotechnology); also called FCGR2A receptor
T2 sequence: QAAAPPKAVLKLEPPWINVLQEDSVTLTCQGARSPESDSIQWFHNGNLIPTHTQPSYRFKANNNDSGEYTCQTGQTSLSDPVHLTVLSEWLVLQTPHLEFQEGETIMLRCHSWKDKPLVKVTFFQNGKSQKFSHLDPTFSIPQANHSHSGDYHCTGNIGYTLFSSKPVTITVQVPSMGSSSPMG


What was measured:
Test in all cases: solid phase ELISA, antibody coated, FCGR titrated
[1] = target: T1, low affinity immunoglobulin gamma fc …
Description: (§1) The plate was blocked and recombinant human Fe gamma receptor (FCGR) proteins (Santa Cruz Biotechnology, Santa Cruz, California) titrated by 2-fold dilution with a starting concentration of 5 μg/ml. […] After binding and washing, the FCGR was detected using an appropriate FCGR isoform specific murine monoclonal antibody (1000 ng/ml) and a horseradish peroxidase conjugate goat anti-mouse IgG detector antibody.
(§2) The plate was blocked and recombinant human Fe gamma receptor (FCGR) proteins (Santa Cruz Biotechnology, Santa Cruz, California) titrated onto by 2-fold dilution with a starting concentration of 5 μg/ml.

[2] = target: T3, high affinity Fc region of IgG receptor IA (FCGR1A) (CD64) (human, UniProt P12314 16-292)
T3 construct: Bought recombinant human protein (Santa Cruz Biotechnology)
Description: as §1, §2

[3] = target: T2, low affinity immunoglobulin gamma fc …
Description: as §1, §2

[4] = target: T4, low affinity immunoglobulin gamma fc region receptor IIIA (FCGR3A) (CD16a) (human, UniProt P08637 17-208)
T4 construct: Bought recombinant human protein (Santa Cruz Biotechnology); also called FCR3A
T4 sequence (P08637 17-208 limits assumed): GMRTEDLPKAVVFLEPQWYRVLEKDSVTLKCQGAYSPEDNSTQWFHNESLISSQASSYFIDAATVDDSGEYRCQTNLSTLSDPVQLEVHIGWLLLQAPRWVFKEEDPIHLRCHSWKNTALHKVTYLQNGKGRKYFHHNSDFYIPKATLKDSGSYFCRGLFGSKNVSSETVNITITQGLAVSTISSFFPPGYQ
Description: as §1, §2

T3 sequence (P12314 16-292 limits assumed): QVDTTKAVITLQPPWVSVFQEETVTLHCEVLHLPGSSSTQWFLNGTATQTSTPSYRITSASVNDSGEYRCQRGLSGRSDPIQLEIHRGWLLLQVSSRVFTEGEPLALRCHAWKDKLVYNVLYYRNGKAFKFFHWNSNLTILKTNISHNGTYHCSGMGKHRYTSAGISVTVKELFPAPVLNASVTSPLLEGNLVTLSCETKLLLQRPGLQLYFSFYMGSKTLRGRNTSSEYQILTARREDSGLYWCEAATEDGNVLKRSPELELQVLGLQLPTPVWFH

| Binder | binding result [1] | binding result [2] | binding result [3] | binding result [4] |
| --- | --- | --- | --- | --- |
| JB5 antibody (antibody, The text mostly prints the name as 'JBS'; also called JBS (OCR spelling of JB5 in the text); mutant JBS antibody) heavy: not shown light: DIVLTQSPATLSVSPGERATISCRASQRVSSSTYSYMHWYQQKPGQPPKLLIKYASNLESGVPARFSGSGSGTDFTLTISSVEPEDFATYYCQHSWEIPPTFGGGTKLEIKRTVAAPSVFIFPPSDEQLKSGTASVVCLLNNFYPREAKVQWKVDNALQSGNSQESVTEQDSKDSTYSLSSTLTLSKADYEKHKVYACEVTHQGLSSPVTKSFNRGEC | no binding (tested: FCGR titrated from 5 µg/ml) | no binding (tested: FCGR titrated from 5 µg/ml) | no binding (tested: FCGR titrated from 5 µg/ml) | no binding (tested: FCGR titrated from 5 µg/ml) |
| hu5c8 antibody (antibody, human IgG1, Humanized 5c8, IgG1; no full light chain entry is named for it; also called parental antibody hu5c8; hu5c8-IgG1) heavy: not shown VL: DIVLTQSPATLSVSPGERATISCRASQRVSSSTYSYMHWYQQKPGQPPKLLIKYASNLESGVPARFSGSGSGTDFTLTISSVEPEDFATYYCQHSWEIPPTFGGGTKLEIK | no binding (tested: FCGR titrated from 5 µg/ml) |  |  | no binding (tested: FCGR titrated from 5 µg/ml) |
